Experimental data published in US20170184591A1.

Legend:
[1] = biological target: EcSkp, biotin conjugate (naked chaperone without fused target) (Escherichia coli) (UniProt P0AEU7); experiment: asymmetric DAGS ECL, Skp-Bi and FkpA-Ru 250 ng/ml each; sample: pool of anti-HTLV-negative human sera; background signal, duplicate 1
[2] = biological target: EcSkp, biotin conjugate (naked chaperone without fused target) (Escherichia coli) (UniProt P0AEU7); experiment: asymmetric DAGS ECL, Skp-Bi and FkpA-Ru 250 ng/ml each; sample: pool of anti-HTLV-negative human sera; background signal, duplicate 2
[3] = biological target: EcSkp, biotin conjugate (naked chaperone without fused target) (Escherichia coli) (UniProt P0AEU7); experiment: asymmetric DAGS ECL, Skp-Bi and FkpA-Ru 10 ng/ml each; sample: pool of anti-HTLV-negative human sera; background signal, duplicate 1
[4] = biological target: EcSkp, biotin conjugate (naked chaperone without fused target) (Escherichia coli) (UniProt P0AEU7); experiment: asymmetric DAGS ECL, Skp-Bi and FkpA-Ru 10 ng/ml each; sample: pool of anti-HTLV-negative human sera; background signal, duplicate 2
[5] = biological target: EcFkpA, biotin conjugate (naked chaperone without fused target) (Escherichia coli) (UniProt P45523); experiment: asymmetric DAGS ECL, FkpA-Bi and Skp-Ru 250 ng/ml each; sample: pool of anti-HTLV-negative human sera; background signal, duplicate 1
[6] = biological target: EcFkpA, biotin conjugate (naked chaperone without fused target) (Escherichia coli) (UniProt P45523); experiment: asymmetric DAGS ECL, FkpA-Bi and Skp-Ru 10 ng/ml each; sample: pool of anti-HTLV-negative human sera; background signal, duplicate 1
[7] = biological target: EcFkpA, biotin conjugate (naked chaperone without fused target) (Escherichia coli) (UniProt P45523); experiment: asymmetric DAGS ECL, FkpA-Bi and Skp-Ru 250 ng/ml each; sample: pool of anti-HTLV-negative human sera; background signal, duplicate 2
[8] = biological target: EcFkpA, biotin conjugate (naked chaperone without fused target) (Escherichia coli) (UniProt P45523); experiment: asymmetric DAGS ECL, FkpA-Bi and Skp-Ru 10 ng/ml each; sample: pool of anti-HTLV-negative human sera; background signal, duplicate 2

Chain of UniProt P0AEU7 (P0AEU7 21-161 limits assumed): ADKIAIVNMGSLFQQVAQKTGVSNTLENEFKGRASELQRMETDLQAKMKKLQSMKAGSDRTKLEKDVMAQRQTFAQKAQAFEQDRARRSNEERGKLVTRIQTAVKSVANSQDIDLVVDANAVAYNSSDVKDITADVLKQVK
Chain of UniProt P45523 (P45523 26-270 limits assumed): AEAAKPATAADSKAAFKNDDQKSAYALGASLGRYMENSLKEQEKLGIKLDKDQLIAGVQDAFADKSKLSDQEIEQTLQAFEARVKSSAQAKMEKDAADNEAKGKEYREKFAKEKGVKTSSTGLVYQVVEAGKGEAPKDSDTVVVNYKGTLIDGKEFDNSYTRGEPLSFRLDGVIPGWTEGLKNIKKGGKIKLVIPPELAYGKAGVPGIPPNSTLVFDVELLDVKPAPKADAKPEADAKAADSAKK

Substance	Signal (counts) [1] [counts]	Signal (counts) [2] [counts]	Signal (counts) [3] [counts]	Signal (counts) [4] [counts]	Signal (counts) [5] [counts]	Signal (counts) [6] [counts]	Signal (counts) [7] [counts]	Signal (counts) [8] [counts]
EcFkpA, ruthenium conjugate (naked chaperone without fused target) (from UniProt P45523 26-270)	2670	2760	567	561	–	–	–	–
EcSkp, ruthenium conjugate (naked chaperone without fused target) (from UniProt P0AEU7 21-161)	–	–	–	–	854	447	864	439
